Here are results for 72 sequences from the supplement of paper PMC10567573.

± gives the standard deviation.

This data set in a line: protein stability index of a GFP-peptide fusion (GPS, HEK-293T) (PSI 1-6); higher = more stable.
[1] abbreviates: treatment: DMSO, c terminus: native.
Setting [2] is: treatment: MLN4924 1 uM, 8 h, c terminus: native.
Setting [3] is: treatment: DMSO, c terminus: a fixed tail appended.
Where [4] appears, read: treatment: MLN4924 1 uM, 8 h, c terminus: a fixed tail appended.
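Note: 24-mer peptide tiles fused after GFP, lentivirally expressed, FACS-sorted into six equal bins by GFP/DsRed ratio, decoded by Illumina sequencing, PSI is the read-weighted mean bin number.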

Regarding RGAPRGGGRGGSRSDRGGGRSRY [RBMX], the protein stability index by setting is: under setting [1], 5.34 ± 0.14; under setting [2], 5.33 ± 0.11.
With MADSGLREPQEDSQKDLENDPSVN [TOR1AIP2], the protein stability index under setting [3] was 5.65 ± 0.19 and the protein stability index under setting [4] is 5.57 ± 0.21.
Consider MQGNQILVFPSSSSSSSSQAPGQP [ZBTB22], for which the protein stability index by setting is: under setting [3], 4.28 ± 0.24; under setting [4], 4.22 ± 0.22.
Taken in the same sequence, the figures for RILGLDQKKDCVPLMKPHRPWADT [HESX1] were 2.34 ± 0.17 and 2.36 ± 0.24.
Consider ADACDIDEIEEVPTTSHRLSRHDK [NETO1], for which the protein stability index was 5.59 ± 0.17 under setting [3] and 5.45 ± 0.17 under setting [4].
In turn, CTLPQLAIAWCLRNEGVSSVLLGA [KCNAB2] registered a protein stability index under setting [3] of 3.1 ± 0.63 and a protein stability index under setting [4] of 2.89 ± 0.36.
Take PDIRTKDIEDVFYKYGAIRDIDLK [SRSF1]: the protein stability index under setting [3] came out at 3.59 ± 0.12 and the protein stability index under setting [4] turned out to be 3.62 ± 0.24.
Consider LEALHLEALCEEDLLLWIQKHTEV [DENND6A], for which the protein stability index reads like this: under setting [3], 2.68 ± 0.17; under setting [4], 2.84 ± 0.67.
For the sequence NILFDFVKKKKEEGVIDSSDKEIV [EIF5], the protein stability index amounted to 3.65 ± 0.12 under setting [3] and 3.74 ± 0.27 under setting [4].
Taken in the same sequence, the figures for RPKDTVMCYRVRWEEAAPGRAVEH [MYORG] were 2.85 ± 0.39 and 2.91 ± 0.35.
MRSNYPPPLSSAALRGAGPTRRN [C6orf223]: the protein stability index runs as follows: under setting [1], 3.1 ± 1.3; under setting [2], 3.18 ± 0.51.
For SVCSCTCYRSQDYGGRSVAPQNSF [KCNK9], the protein stability index reads like this: under setting [3], 2.44 ± 0.23; under setting [4], 2.64 ± 0.43.
With SFHPLQYIGFYGKETTNTCILKCN [PDS5B], the protein stability index by setting is: under setting [3], 1.99 ± 0.44; under setting [4], 2.27 ± 0.35.
Taken in the same sequence, the figures for PGNGTHGLSPEEKEQLSNDRETQE [ELOA2] were 5.73 ± 0.074 and 5.75 ± 0.16.
Consider VVGGAMFFIGFTALVIMWQKHYVY [COX4I1], for which the protein stability index turned out to be 3.11 ± 0.29 under setting [3] and 3.24 ± 0.49 under setting [4].
For the sequence IGCVFAELLTGQPLWPGKSDVDQL [CDKL4], the protein stability index by setting is: under setting [3], 2.09 ± 0.32; under setting [4], 2.15 ± 0.57.
For DTMRQINKKGFWSYGPVILVVLVV [TOR1AIP2], the protein stability index is, setting by setting: under setting [3], 2.49 ± 0.48; under setting [4], 2.42 ± 0.37.
For the sequence GAVIEVFGHRFIILDTDEYVLKYM [EFHC1], the protein stability index came out at 2.5 ± 0.56 under setting [3] and 2.27 ± 0.67 under setting [4].
Regarding QELPPYNGFGLVEDSAQNCFALIP [EFHC1], the protein stability index reads like this: under setting [3], 3.38 ± 0.18; under setting [4], 3.4 ± 0.24.
Regarding LPWFRTLSWYFLLCVNYFFYGETV [CDS1], the protein stability index reads like this: under setting [3], 3.08 ± 0.14; under setting [4], 3.38 ± 0.75.
GSRVLHVVQTLYPFSSVTEEELNF [NCK2]: the protein stability index reads like this: under setting [3], 2.31 ± 0.31; under setting [4], 2.31 ± 0.22.
In the case of LSAFYLSYFDMLYPEDSSWAAKAP [SPDEF], the protein stability index worked out at 2.63 ± 0.59 under setting [3] and 2.48 ± 0.52 under setting [4].
Taken in the same sequence, the figures for LHVKRSMGWKKACDELELHQRFLR [ZMYND11] were 2.31 ± 0.12 and 2.55 ± 0.45.
Regarding FSAEFLKVFIPSLFLSHVLALGLG [BNIP3L], the protein stability index is, setting by setting: under setting [3], 3.57 ± 0.21; under setting [4], 2.9 ± 0.93.
With NIHENKRTGSLFKIWLVVPSLLEL [KLHDC10], the protein stability index was 3.16 ± 0.49 under setting [3] and 3.15 ± 0.42 under setting [4].
Regarding MGIVNLNIHMNFTHICRSHNSINQ [SLC2A12], the protein stability index reads like this: under setting [3], 2.73 ± 0.52; under setting [4], 2.9 ± 0.46.
Consider VYRFVCDLQNLLGFTPEELHAILG [ETS2], for which the protein stability index runs as follows: under setting [3], 2.21 ± 0.41; under setting [4], 2.19 ± 0.11.
Regarding FDKEWVAKQTKRMLDMKVNPIQGL [COX4I1], the protein stability index reads like this: under setting [3], 2.46 ± 0.44; under setting [4], 2.78 ± 0.41.
Taken in the same sequence, the figures for QAQAVQTEQAVALLRDRTGQQSDT [SCARA5] were 5.35 ± 0.34 and 5.19 ± 0.23.
Turning to GVIVANMTEWKHQRITKQLEKWMQ [GLT8D2], the protein stability index reads like this: under setting [3], 2.18 ± 0.085; under setting [4], 2.4 ± 0.18.
Consider HSGEKPYKCSDCGKTFKQSSNLGQ [ZNF232], for which the protein stability index is, setting by setting: under setting [3], 3.76 ± 0.3; under setting [4], 3.57 ± 0.37.
As for DKLALCHLELTRKLQDLIKDVLRY [FCHO1], the protein stability index reads like this: under setting [3], 2.9 ± 0.48; under setting [4], 2.74 ± 0.43.
For the sequence PFSEFFKLRFNRKKKGMYRKAITE [PWWP2B], the protein stability index reads like this: under setting [3], 2.35 ± 0.43; under setting [4], 2.9 ± 0.27.
Taken in the same sequence, the figures for FLFVLGGEDQWNPNGKHSTNFVSR [KLHL14] were 2.11 ± 0.15 and 2.27 ± 0.41.
Consider METFDPTELPELLKLYYRRLFPYS [PRIM1], for which the protein stability index under setting [3] was 2.43 ± 0.51 and the protein stability index under setting [4] came out at 2.38 ± 0.35.
With GHHERSIMTDLYYLSQTDGAGDWR [FUT8], the protein stability index is, setting by setting: under setting [3], 3.2 ± 0.35; under setting [4], 3.12 ± 0.24.
Turning to RGDERILSILRHQNLLKELQDLAL [CHGA], the protein stability index runs as follows: under setting [3], 2.36 ± 0.4; under setting [4], 2.41 ± 0.29.
For the sequence GVNYPKPMVNHAEASRLNIERMKQ [CRY1], the protein stability index is, setting by setting: under setting [3], 4.2 ± 0.3; under setting [4], 4.11 ± 0.62.
Consider ILLNGVSGWIFFYVPSSESFIIYL [P2RY14], for which the protein stability index was found to be 2.74 ± 0.27 under setting [3] and 2.84 ± 0.52 under setting [4].
Taken in the same sequence, the figures for MATEGLHENETLASLKSEAESLKG [GNB5] were 5.31 ± 0.23 and 5.2 ± 0.15.
As for QKVAVYRALQAALAESGGSPDVLQ [TRADD], the protein stability index under setting [3] is 2.31 ± 0.36 and the protein stability index under setting [4] stood at 2.4 ± 0.46.
Taken in the same sequence, the figures for LLLEMLTFNPHKRISAFRALQHSY [CDK4] were 2.43 ± 0.32 and 2.41 ± 0.25.
The sequence MGIYQMYLCFLLAVLLQLYVATEA [SLC22A15] returned a protein stability index under setting [3] of 2.92 ± 0.38 and a protein stability index under setting [4] of 2.84 ± 0.41.
On to KHHNLEGLRKRIATLFFHYIKTPL [IQUB], for which the protein stability index came to 3.05 ± 0.27 under setting [3] and 2.66 ± 0.59 under setting [4].
With EYQCQNLYQLEGNNQITCRNGQWS [CFHR2], the protein stability index under setting [3] was determined as 3.09 ± 0.14 and the protein stability index under setting [4] turned out to be 3.03 ± 0.21.
With SQAIDLLYWRDIKQTGIVFGSFLL [RTN1], the protein stability index reads like this: under setting [3], 3.03 ± 0.81; under setting [4], 3.01 ± 0.47.
In the case of APEIDPSSDGSNFGWETKIKAWMD [KMT2E], the protein stability index by setting is: under setting [3], 4.21 ± 0.41; under setting [4], 4.36 ± 0.25.
Consider CPHCGDRTFYDPEPILCPCFMPN [PRAME], for which the protein stability index is, setting by setting: under setting [1], 3.98 ± 0.25; under setting [2], 3.99 ± 0.48.
For the sequence VGVMLPHNTTEAPGPHSAKQDSYE [ZC2HC1C], the protein stability index reads like this: under setting [3], 5.03 ± 0.27; under setting [4], 5.215 ± 0.033.
As for LLMIPWGSAAKLVCYFTNWAQYRQ [CHIT1], the protein stability index by setting is: under setting [3], 3.04 ± 0.69; under setting [4], 2.86 ± 0.68.
Taken in the same sequence, the figures for SMIQEQFKKGKNPTGLLALQQIAD [ADD1] were 3.08 ± 0.18 and 3.17 ± 0.32.
As for DLAGLGSETPKSQVGTLLFRSRSR [CDC25B], the protein stability index was 3.83 ± 0.35 under setting [3] and 4.11 ± 0.35 under setting [4].
Regarding GTTVTFDDLMGILCKSVLEIERAI [FEM1C], the protein stability index was determined as 2.31 ± 0.26 under setting [3] and 2.14 ± 0.42 under setting [4].
The sequence NPGTDAVAQTSLEEFNVLEMEVMR [FATE1] gave a protein stability index under setting [3] of 4.71 ± 0.18 and a protein stability index under setting [4] of 4.68 ± 0.13.
In the case of RRTRGPVERAAAAAAAAAGGDAGH [C6orf223], the protein stability index under setting [3] was 4.91 ± 0.31 and the protein stability index under setting [4] was determined as 5.07 ± 0.17.
Take VCCCELGVNPDQVEKIRKLPNTLL [ANKRD40]: the protein stability index reads like this: under setting [3], 2.26 ± 0.36; under setting [4], 2.82 ± 0.32.
Consider WEIAKAEVEKRGINGSEGDGAEIA [DYNC2LI1], for which the protein stability index by setting is: under setting [3], 5.26 ± 0.22; under setting [4], 5.18 ± 0.27.
For the sequence VYDNEKKLQLQLNETKSQAFVSNS [PLD5], the protein stability index reads like this: under setting [3], 4.48 ± 0.47; under setting [4], 4.33 ± 0.19.
Consider SPSPPVEVKIEEPVSMEMDNHMSD [INTS3], for which the protein stability index came out at 5.59 ± 0.19 under setting [3] and 5.52 ± 0.17 under setting [4].
Take MLYEKQKQQNVAHCMLVSNRVSWW [ZBED1]: the protein stability index under setting [3] came out at 2.08 ± 0.17 and the protein stability index under setting [4] is 2.31 ± 0.2.
Regarding FLSLHRAHLGEEAHKCLECGKCFS [ZNF263], the protein stability index by setting is: under setting [3], 3.06 ± 0.28; under setting [4], 3.44 ± 0.37.
Turning to KSPIAPCSLDKRVILIFHCEFSSE [CDC25B], the protein stability index is, setting by setting: under setting [3], 2.73 ± 0.5; under setting [4], 2.8 ± 0.47.
EEIKFYELGEEAMEKFREDEGFIK [KCNA1] had a protein stability index under setting [3] of 4.71 ± 0.36 and a protein stability index under setting [4] of 4.84 ± 0.14.
As to PPKRMLGADREFIEARRRALKRFV [SNX8], the protein stability index is 3.36 ± 0.43 under setting [3] and 3.62 ± 0.17 under setting [4].
GYNWCHDRNVVTIFSAPNYCYRCG [PPP2CA]: the protein stability index by setting is: under setting [3], 2.4 ± 0.41; under setting [4], 2.27 ± 0.46.
Consider FVLGKGRGAAAAGGPQRIPAHRFV [BTBD1], for which the protein stability index was found to be 2.3 ± 0.25 under setting [3] and 2.71 ± 0.31 under setting [4].
Taken in the same sequence, the figures for LPSLGLPQYRSYFMECLVDARMLD [PPFIA4] were 2.47 ± 0.46 and 2.13 ± 0.38.
With IFRSYSRGAQGVILVYDIANRWSF [RAB40A], the protein stability index runs as follows: under setting [3], 2.53 ± 0.36; under setting [4], 2.36 ± 0.35.
On to SLSTSSSSSPPGTPSPADAKAPPT [CEBPB], for which the protein stability index under setting [3] worked out at 5.42 ± 0.15 and the protein stability index under setting [4] is 5.34 ± 0.19.
Consider ELEKSGHGQAGQRQDPRPHGPQLP [ZBED2], for which the protein stability index by setting is: under setting [3], 5.01 ± 0.25; under setting [4], 5.28 ± 0.055.
Taken in the same sequence, the figures for AESFPGSQVMGSGRGSLSSGGQTS [PLEKHN1] were 4.81 ± 0.2 and 4.88 ± 0.25.
For YHEAPMTRKHYQVTGYGINGTGDS [POMT2], the protein stability index reads like this: under setting [3], 2.97 ± 0.36; under setting [4], 3.42 ± 0.31.
